In patent publication US20150118233A1 (Ablynx, published 2015):

B1: Nanobody NC41 (VHH)
VHH: EVQLVESGGGLVQAGGSLSISCAASGGSLSNYVLGWFRQAPGKEREFVAAINWRGDITIGPPNVEGRFTISRDNAKNTGYLQMNSLAPDDTAVYYCGAGTPLNPGAYIYDWSYDYWGRGTQVTVSS
B2: Nanobody NC23 (VHH)
VHH: EVQLVESGGGLVQPGGSLRLSCAASGRTFSSIAMGWFRQAPGKEREFVAAISWSRGRTFYADSVKGRFIISRDDAANTAYLQMNSLKPEDTAVYYCAVDTASWNSGSFIYDWAYDHWGQGTQVTVSS
B3: Nanobody 15B3 (VHH)
VHH: EVQLVESGGGLVQPGGSLRLSCAASGLTLDYYALGWFRQAPGKEREGVSCISSSDHSTTYTDSVKGRFTISWDNAKNTLYLQMNSLKPGDTAVYYCAADPALGCYSGSYYPRYDYWGQGTQVTVSS
B4: NC41v06 (VHH)
VHH: EVQLLESGGGLVQPGGSLRLSCAASGGSLSNYVLGWFRQAPGKGREFVAAINWRDDITIGPPNVEGRFTISRDNAKNTLYLQMNSLRPEDTAVYYCGAGTPLNPGAYIYDWSYDYWGQGTLVTVSS
B5: NC41v17 (VHH)
VHH: EVQLLESGGGLVQPGGSLRLSCAASGGSLSNYVLGWFRQAPGKGREFVAAINWRGDITIGPPNVEGRFTISRDNSKNTLYLQMNSLRPEDTAVYYCGAGTPLNPGAYIYDWSYDYWGQGTLVTVSS
B6: Nanobody 191E4 (VHH)
VHH: EVQLVESGGGLVQAGGSLRLSCAASGPTFSADTMGWFRQAPGKEREFVATIPWSGGIAYYSDSVKGRFTMSRDNAKNTVDLQMNSLKPEDTALYYCAGSSRIYIYSDSLSERSYDYWGQGTQVTVSS
B7: Nanobody 7B2 (VHH)
VHH: EVQLVESGGGLVQAGDSLRLSCAASGRTFSSYAMGWFRQAPGKEREFVAAISWSDGSTYYADSVKGRFTISRDNAKNTVYLQMNSLKPEDTAVYYCAADLTSTNPGSYIYIWAYDYWGQGTQVTVSS
B8: Nanobody 15H8 (VHH)
VHH: EVQLVESGGGLVQAGGSLRLSCAASGRSFSNYVLGWFRQAPGKEREFVAAISFRGDSAIGAPSVEGRFTISRDNAKNTGYLQMNSLVPDDTAVYYCGAGTPLNPGAYIYDWSYDYWGRGTQVTVSS
B9: Nanobody 191D3 (VHH)
VHH: EVQLVESGGGLVQAGGSLRLSCEASGRTYSRYGMGWFRQAPGKEREFVAAVSRLSGPRTVYADSVKGRFTISRDNAENTVYLQMNSLKPEDTAVYTCAAELTNRNSGAYYYAWAYDYWGQGTQVTVSS
B10: Nanobody 1E4 (VHH)
VHH: EVQLVESGGGLVQAGGSLRLSCEASGRTFSSYGMGWFRQAPGKEREFVAAVSRLSGPRTVYADSVKGRFTISRDNAENTVYLQMNSLKPEDTAVYTCAAELTNRNPGAYYYTWAYDYWGQGTQVTVSS

Tests used:
Assay in all cases: cell-based or functional assay
[1] = target: F protein of hRSV strain B-1 (hRSV strain B-1)
[2] = target: F protein of hRSV strain B-1 (hRSV strain B-1); remark: listed apart in the source
[3] = target: F protein of hRSV strain A-2 (hRSV strain A-2)
[4] = target: F protein of hRSV strain Long (hRSV strain Long)

Binder | Neutralization IC50 (first assay) [1] [nM] | RSV neutralization IC50 [2] [nM] | RSV neutralization IC50 [3] [nM] | also measured
B1 | 4710 | 4000 | 26 | Neutralization IC50 (second assay) [1]: 3290 nM
B2 | – | – | 109 | –
B3 | – | 1270 | – | –
B4 | 806 | – | – | –
B5 | 677 | – | – | Neutralization IC50 (second assay) [1]: 346 nM; Neutralization IC50 (first assay) [4]: 249 nM; Neutralization IC50 (second assay) [4]: 149 nM
B6 | – | 4330 | – | –
B7 | – | 2690 | 177 | –
B8 | – | 2340 | 218 | –
B9 | – | – | 227 | –
B10 | – | – | 298 | –
